The source of these data is US20230287143A1 (published 2023).

The target in one assay is T1, human PD-L1 (human, UniProt Q9NZQ7 19-290).
T1 construct: whole, on cells; also called CD274; B7-H1
The experiment in a line: flow cytometry on CHO-K1/hPD-L1 cells. The method, then:
(§1) The cells were incubated at 4° C. for 1 h away from light. […] Then, the cells in each well were then rinsed twice with 200 μL of pre-cooled FACS buffer and centrifuged at 500 g at 4° C. for 5 min, and then the supernatant was discarded. Finally, a pre-cooled FACS buffer was added at 200 μL/well to resuspend the cells.

For assay [1], the target named is T2, recombinant human BCMA-ECD-Fc fusion protein (ACRO Biosystems, #BC7-H82F0), biotinylated (human, UniProt Q02223 1-54, biotinylated with EZ-Link Sulfo-NHS-LC-Biotin (sites not given)).
T2 construct: extracellular domain; Bought protein; also called biotinylated BCMA
T2 sequence (looked up): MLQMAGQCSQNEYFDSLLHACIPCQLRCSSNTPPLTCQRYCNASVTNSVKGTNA
The experiment in a line: BLI (Octet Red96e), biotinylated BCMA-ECD-Fc on SA sensor, binding protein 10-2.5 nM in solution, 1:1 global fitting. The method, then:
In this example, the binding kinetics between the BCMA binding protein and BCMA were analyzed by the Biolayer Interferometry (BLI) technique using an Octet molecular interaction analyzer (ForteBio, Octet Red96e).
Two columns of SA sensors (8 sensors in each column; with the sensors in the first column referred to as the reference SA sensor and the sensors in the second column referred to as the test SA sensor) were firstly equilibrated in the equilibration buffer for 10 min. Then, the biotinylated BCMA were captured by test SA sensors with a capture height of 0.2 nm, and the reference SA sensors were immersed in the buffer for 30 s. The two arrays of sensors were combined with the test BCMA-binding protein at concentrations obtained by a two-fold dilution from 10 nM to 2.5 nM and a concentration of 0 nM. The sensors were combined with the test proteins for 180 s and then dissociated for 800 s.
When data analysis was performed using Octet Data Analysis software (Fortebio, version 11.0), the reference signals were subtracted by a double reference mode; the data were fitted by a “1:1 Global fitting” method, and the kinetic parameters of the binding of the antigen to the antigen-binding protein were calculated to obtain kₒₙ (1/Ms) values, kdis (1/s) values and KD (M) values.

The next assay has as its target T3, human CTLA4 (human, UniProt P16410 36-223).
T3 construct: whole, on cells; also called CD152; CHO-K1/hCTLA4
Nature of the assay: flow cytometry on CHO-K1/hCTLA4 cells. The method, then: as §1

For another assay, the target named is T4, human 4-1BB (human, UniProt Q07011 24-255).
T4 construct: whole, on cells; also called CD137; TNFRSF9
Nature of the assay: flow cytometry on CHO-K1/hu 4-1BB cells. The method, then: Specifically, the cells were digested and resuspended in a complete medium, and the cell density was adjusted to 2×10⁶ cells/mL. […] The cells were incubated at 4° C. for 1 h away from light. […] Then, the cells in each well were then rinsed twice with 200 μL of pre-cooled FACS buffer and centrifuged at 500 g at 4° C. for 5 min, and then the supernatant was discarded. Finally, a pre-cooled FACS buffer was added at 200 μL/well to resuspend the cells.

T1 sequence (Q9NZQ7 19-290): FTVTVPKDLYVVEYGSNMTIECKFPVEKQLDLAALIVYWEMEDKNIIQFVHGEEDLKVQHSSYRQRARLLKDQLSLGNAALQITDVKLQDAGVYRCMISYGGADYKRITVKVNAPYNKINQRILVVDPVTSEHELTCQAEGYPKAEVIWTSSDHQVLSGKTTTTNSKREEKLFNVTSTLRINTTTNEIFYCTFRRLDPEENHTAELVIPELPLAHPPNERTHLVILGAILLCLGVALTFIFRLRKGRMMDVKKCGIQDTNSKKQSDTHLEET
T3 sequence (P16410 36-223): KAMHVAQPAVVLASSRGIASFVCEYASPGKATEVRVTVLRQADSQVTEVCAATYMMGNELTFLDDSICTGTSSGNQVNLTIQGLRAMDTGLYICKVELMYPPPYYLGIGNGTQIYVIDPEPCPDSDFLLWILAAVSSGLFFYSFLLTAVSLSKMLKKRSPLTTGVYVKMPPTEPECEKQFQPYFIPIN
T4 sequence (Q07011 24-255): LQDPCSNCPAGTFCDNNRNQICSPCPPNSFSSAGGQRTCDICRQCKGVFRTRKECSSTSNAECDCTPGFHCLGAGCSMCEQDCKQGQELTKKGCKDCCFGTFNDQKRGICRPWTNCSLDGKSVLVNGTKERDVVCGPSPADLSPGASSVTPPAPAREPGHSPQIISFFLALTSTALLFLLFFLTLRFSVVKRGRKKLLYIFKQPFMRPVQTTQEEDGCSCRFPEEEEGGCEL

B1: PR004268, PD-L1×4-1BB bispecific binding protein with the VH-IgG structure (structure 4) (bispecific antibody)
light: DIQMTQSPSTLSASVGDRVTVTCRASQSIYIWLAWYQQKPGKAPNLLIYKASSLETGVPSRFSGSGSGTEFTLTISSLQPDDFATYYCQQYYGSSRTFGQGTKVEIKRTVAAPSVFIFPPSDEQLKSGTASVVCLLNNFYPREAKVQWKVDNALQSGNSQESVTEQDSKDSTYSLSSTLTLSKADYEKHKVYACEVTHQGLSSPVTKSFNRGEC
heavy: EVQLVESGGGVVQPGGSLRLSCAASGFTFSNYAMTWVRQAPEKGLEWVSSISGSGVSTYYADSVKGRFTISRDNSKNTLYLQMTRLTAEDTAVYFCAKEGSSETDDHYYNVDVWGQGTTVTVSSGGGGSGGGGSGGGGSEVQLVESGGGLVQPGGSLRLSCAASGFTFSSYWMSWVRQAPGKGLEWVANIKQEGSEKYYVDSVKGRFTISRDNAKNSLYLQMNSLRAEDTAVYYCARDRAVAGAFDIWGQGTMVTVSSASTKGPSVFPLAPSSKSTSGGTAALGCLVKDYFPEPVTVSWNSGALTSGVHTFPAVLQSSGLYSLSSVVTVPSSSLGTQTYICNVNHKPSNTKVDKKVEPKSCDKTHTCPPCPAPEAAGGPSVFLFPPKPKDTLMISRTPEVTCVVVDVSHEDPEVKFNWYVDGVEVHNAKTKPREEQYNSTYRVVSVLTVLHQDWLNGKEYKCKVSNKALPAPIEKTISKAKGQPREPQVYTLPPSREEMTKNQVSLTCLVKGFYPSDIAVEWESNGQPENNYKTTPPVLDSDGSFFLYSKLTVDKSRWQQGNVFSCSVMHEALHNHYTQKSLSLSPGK
notes: 4-1BB VH (PR001760) at the N-terminus of the heavy chain of PD-L1 IgG (PR000265); linker GS_15; human IgG1 (LALA)
B1: the binding result with human PD-L1 is reported as “binds”.

B2: Anti-BCMA heavy-chain antibody PR001046_R2_4G10 (antibody, human IgG1, V domains shown)
VH: EVQLVETGGGLIQPGGSLRLSCAASGFTVSDSYMTWVRQAPGKGLEWVSVIFSGGRTYYSDSVKGRFTISRDNAKNTLYLQMNSLRAEDTALYYCARRNYDDTRGTDVFDIWGQGTMVTVSS
notes: Fully human heavy-chain-only antibody (HCAb), bivalent, no light chain; also called PR004433
For B2, in assay [1], the Kd amounted to 0.0792 nM, the off-rate constant (koff) stood at 7.16e-05 s⁻¹ and the kon is 904000 M⁻¹ s⁻¹.

B3: Anti-CTLA4 heavy-chain antibody CL5v3 (antibody, human IgG1, V domains shown)
VH: EVQLVESGGGLIQPGGSLRLSCAVSGFTVSKNYMSWVRQAPGKGLEWVSVVYSGGSKTYADSVKGRFTISRDNSKNTLYLQMNSLRAEDTAVYYCARAVPHSPSSFDIWGQGTMVTVSS
notes: Fully human heavy-chain-only antibody (HCAb), no light chain; also called PR000184
As to B3, the binding result in the assay with human CTLA4 is “binds”.

B4: PR000701, PD-L1×4-1BB bispecific binding protein with the FIT-Ig structure (structure 5) (bispecific antibody, human IgG4 S228P, kappa)
chain 1: not shown
chain 2: EVQLVESGGGLVQPGGSLRLSCAASGFTFSSYWMSWVRQAPGKGLEWVANIKQEGSEKYYVDSVKGRFTISRDNAKNSLYLQMNSLRAEDTAVYYCARDRAVAGAFDIWGQGTMVTVSSASTKGPSVFPLAPSSKSTSGGTAALGCLVKDYFPEPVTVSWNSGALTSGVHTFPAVLQSSGLYSLSSVVTVPSSSLGTQTYICNVNHKPSNTKVDKKVEPKSC
light: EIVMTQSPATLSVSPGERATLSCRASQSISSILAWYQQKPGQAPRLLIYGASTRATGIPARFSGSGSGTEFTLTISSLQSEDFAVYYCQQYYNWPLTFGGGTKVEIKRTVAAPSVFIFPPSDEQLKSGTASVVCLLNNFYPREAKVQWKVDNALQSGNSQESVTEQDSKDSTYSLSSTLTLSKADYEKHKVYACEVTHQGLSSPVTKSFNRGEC
notes: FIT-Ig, symmetric tetravalent, three different chains; PD-L1 Fab of PR000265, 4-1BB Fab of PR000197 close to Fc; human IgG4
Regarding B4, the binding result with human PD-L1 and in the assay with human 4-1BB was “binds” throughout.

B5: PR005744, BCMA×BCMA bispecific binding protein with the Fab-HCAb structure (structure 1) (bispecific antibody, human IgG1, kappa)
chain 1: QVQLVESGGGVVQPGRSLRLSCAATGFTFSSYGMYWVRQAPGKGLEWVAAIWNDGSNNYYADSVKGRFTISRDDSKNTLNLQMNSLRAEDTAMYYCARDRLPMASLRYFDWLGVMDAWGQGTSVTVSSASTKGPSVFPLAPSSKSTSGGTAALGCLVKDYFPEPVTVSWNSGALTSGVHTFPAVLQSSGLYSLSSVVTVPSSSLGTQTYICNVNHKPSNTKVDKKVEPKSC
chain 2: not shown
notes: no first linker; human IgG1 hinge and Fc
In the case of B5, in assay [1], the Kd stood at 0.0279 nM, the koff was determined as 4.87e-05 s⁻¹ and the kon was 1.75e+06 M⁻¹ s⁻¹.
